Test results taken from patent US20230381328A1, “COMPOUND FOR THE PREVENTION OR TREATMENT OF MYASTHENIA GRAVIS” (ABLEVIA BIOTECH GMBH, priority 2020, published 2023).

target: monoclonal antibody mAB 198; assay: peptide microarray, fluorescence, linear peptide; conditions: not given

Row | Molecule | relative signal [%]
1 | YNLKFNP [YNLKFNP, linear mimotope] | 13.7
2 | LRRNPAD [LRRNPAD, linear mimotope] | 100
3 | NPADYGR [NPADYGR, linear mimotope] | 12.2
4 | LRGNPAD [LRGNPAD, linear mimotope] | 48
5 | CNLKFNP [CNLKFNP, linear mimotope] | 11
6 | NPADYGY [NPADYGY, linear mimotope] | 21.2
7 | LHWNPAD [LHWNPAD, linear mimotope] | 15.7
8 | LRLNPAD [LRLNPAD, linear mimotope] | 25.2
9 | WNPADYP [WNPADYP, linear mimotope] | 20.5
10 | RINPADY [RINPADY, linear mimotope] | 12.2
11 | VRLRFNP [VRLRFNP, linear mimotope] | 27.1
12 | NPADYHG [NPADYHG, linear mimotope] | 59.3
13 | NPADYRG [NPADYRG, linear mimotope] | 71.4
14 | NPADYGD [NPADYGD, linear mimotope] | 14.1
15 | NPADYGH [NPADYGH, linear mimotope] | 18.1
16 | RLNPADY [RLNPADY, linear mimotope] | 17.7
17 | NPDDYHG [NPDDYHG, linear mimotope] | 21.3
18 | NPADYGV [NPADYGV, linear mimotope] | 6
19 | LRYNPAD [LRYNPAD, linear mimotope] | 15.9
20 | WNPDDYR [WNPDDYR, linear mimotope] | 11.4
21 | VRLRYNP [VRLRYNP, linear mimotope] | 26.3
22 | RYNPADY [RYNPADY, linear mimotope] | 16.5
23 | RWNPADF [RWNPADF, linear mimotope] | 12.6
24 | GSLRFNP [GSLRFNP, linear mimotope] | 21.6
25 | RFNPADY [RFNPADY, linear mimotope] | 21.8
26 | NPADYPG [NPADYPG, linear mimotope] | 19.8

Second part, the molecule after the results:

Row | relative signal [%] | Molecule
27 | 11.4 | RLRFNPADY
28 | 17.3 | LRLNPADYG
29 | 20.2 | RLHWNPADY
30 | 20.1 | QWIDVRLRFNP
31 | 13 | GGGSLRFNP
32 | 13.4 | QWIDVRLRYNP
33 | 13.7 | WNPADYGHI
34 | 15 | IDVRLRFNP
35 | 16.7 | LLGGGSLRFNP
36 | 13 | RGNPADYGG
37 | 25 | VRLRRNPAD
38 | 13.6 | SLHWNPADY
39 | 12.6 | LRINPADYG
40 | 28.3 | LRRNPADYG
41 | 14.9 | RLRVNPADY
42 | 11 | SLRINPADY
43 | 56.7 | VRLRWNPADYP
44 | 11 | RLYWNPADY
45 | 15.3 | LRWNPADYH
46 | 12.2 | IDVRLRYNP
47 | 12.4 | RLRWNPADYHG

system: myasthenogenic antibody mAB 198; assay: Peptide microarray mimotope screen, binding of mAB 198 to linear and cyclic peptides (fluorescence readout); design: species or system rat; conditions: cyclic mimotopes; binding of mAB 198, relative fluorescent signal after normalization against background
Source text: A custom peptide array of 30000 peptides was synthesized, with peptides of 7-19 amino acids in size; the peptides were based on substitution analyses of 176 AChR-MIR peptides with exchanges of each amino acid positions by each of the 20 common amino acids. Peptides were synthesized directly on a microarray, and screened with monoclonal antibody mAB 198 in order to obtain mimotopes with a binding strength which was improved over the human AChR alpha chain MIR-containing sequence […] (Tzartos et al, 1991; Luo et al, 2009) and over a previously published mimotope sequence ([…]), that was derived from Torpedo AchR with the help of antibody mAB 132A (Trinh et al, 2014). In particular, the wild type AChR-MIR sequence is known to structurally mimic to a certain extent the epitope recognized by myasthenogenic, unwanted and disease-causing antibodies from patients. The mimotope peptide library was designed by permutation of each single amino acid position of these two sequences with all natural amino acids in order to provide a maximally diversified collection of peptide variants. All peptides were synthesized in doublets as linear and as cyclic peptides. The aim was to obtain peptides (mimotopes) that mimic the natural epitope of myasthenogenic antibodies.
For the mimotope screen, the antibody mAB 198 (Absolute Antibody Ltd, UK) was used. This is a prototype antibody that was generated in rats using human AChR (Tzartos et al, 1983; Asher et al, 1993). […] Therefore, mAB198 was used as a surrogate probe to screen for new mimotopes that are capable of mimicking the corresponding AChR-MIR epitope or portions of the epitope.
As a readout, binding of mAB 198 to the 30000 linear and cyclic peptides was measured by fluorescence readout, and peptides were ranked according to their relative fluorescent signal after normalization against the background.
The top-ranked 100 linear and cyclic mimotopes are listed in Table 1 and Table 2 above, respectively.

Row | Molecule | relative signal [%]
48 | 162 (RIRWNPADY) [compound 162] | 11.5
49 | 137 (RVNPADY) [compound 137] | 18.7
50 | 186 (GSLRWNPADYQ) [compound 186] | 9.7
51 | 175 (RLRWNPADYHG) [compound 175] | 10.1
52 | 127 (LRINPADYG) [compound 127] | 22.8
53 | 150 (NPADYGD) [compound 150] | 12.6
54 | 130 (SLRLNPADY) [compound 130] | 21.8
55 | 102 (RLRVNPADY) [compound 102] | 61.3
56 | 140 (RPNPADY) [compound 140] | 15.6
57 | 101 (VRLRWNPADYP) [compound 101] | 100.0
58 | 129 (RGNPADYGG) [compound 129] | 22.2
59 | 128 (GGSLRVNPADY) [compound 128] | 22.5
60 | 135 (GGSLRGNPADY) [compound 135] | 19.6
61 | 167 (DVRLRWNPSDY) [compound 167] | 10.5
62 | 155 (SLRYNPADY) [compound 155] | 12.2

same assay, conditions: linear mimotopes; binding of mAB 198, relative fluorescent signal after normalization against background

Row | Molecule | relative signal [%]
63 | 26 (LLGGGSLRFNP) [compound 26] | 16.7
64 | 13 (LRLNPAD) [compound 13] | 25.2
65 | 5 (LRGNPAD) [compound 5] | 48.0
66 | 4 (VRLRWNPADYP) [compound 4] | 56.7
67 | 32 (RLRVNPADY) [compound 32] | 14.9
68 | 10 (LRRNPADYG) [compound 10] | 28.3
69 | 11 (VRLRFNP) [compound 11] | 27.1
70 | 17 (NPDDYHG) [compound 17] | 21.3

Next, values leading:

Row | relative signal [%] | Molecule
71 | 10.6 | 54 (SLRWNPADYHG) [compound 54]
72 | 6.1 | 97 (LRPNPADYG) [compound 97]
73 | 11.4 | 46 (RLRFNPADY) [compound 46]
74 | 12.2 | 43 (IDVRLRYNP) [compound 43]
75 | 9.5 | 58 (RPNPADY) [compound 58]
76 | 12.2 | 44 (RINPADY) [compound 44]
77 | 9.2 | 63 (LRINPAD) [compound 63]
78 | 6.9 | 83 (RLRGNPADY) [compound 83]
79 | 6.7 | 90 (CNLKYNP) [compound 90]
80 | 8.6 | 68 (RPNPADYGG) [compound 68]
